The record followed here is the Immune Epitope Database (IEDB).

One assay concerns the target HLA-B*15:02. Description: IEDB peptide-MHC binding, purified MHC/competitive/fluorescence; filed as Kd, often an IC50 or EC50 that approximates it; ≥ and ≤ were set here for values at or beyond the usual limits of such assays.
The target in assay [1] is HLA-B*27:05. Description: IEDB peptide-MHC binding, purified MHC/direct/fluorescence; filed as Kd, often an IC50 or EC50 that approximates it; ≥ and ≤ were set here for values at or beyond the usual limits of such assays. The conditions noted are these: source organism: Vibrio cholerae.
A further assay addresses HLA-B*40:01. The description is as above. To be noted: source organism: Vibrio cholerae.
Another assay deals with HLA-A*11:01. Described as above. The conditions noted are these: source organism: Vibrio cholerae.
The next assay has as its target HLA-B*08:01. Described as above. To be noted: source organism: Vibrio cholerae.
In assay [2] the target is HLA-A*03:01. The description is as above. The conditions noted are these: source organism: Vibrio cholerae.
Assay [3] addresses HLA-A*26:01. The assay is described as above. The conditions noted are these: source organism: Vibrio cholerae.
The target of the next assay is HLA-A*69:01. The assay is described as above. To be noted: source organism: Vibrio cholerae.
Another assay deals with HLA-B*44:02. The assay is described as above. To be noted: source organism: Vibrio cholerae.
The target of the next assay is HLA-A*01:01. Described as above. The conditions noted are these: source organism: Vibrio cholerae.
In assay [4] the target is HLA-A*02:01. The assay is described as above. The conditions noted are these: source organism: Vibrio cholerae.
The target of the next assay is HLA-B*58:01. Described as above. To be noted: source organism: Vibrio cholerae.
The target of the next assay is HLA-A*31:01. Described as above. To be noted: source organism: Vibrio cholerae.
In the next assay the target is HLA-B*07:02. Described as above. The conditions noted are these: source organism: Vibrio cholerae.
The target of assay [5] is HLA-B*15:01. The assay is described as above. To be noted: source organism: Vibrio cholerae.
Another assay concerns the target HLA-A*30:01. Described as above. To be noted: source organism: Vibrio cholerae.
The target of the next assay is HLA-B*73:01. Kind of assay: IEDB peptide-MHC binding, purified MHC/competitive/fluorescence; filed as Kd, often an IC50 or EC50 that approximates it; ≥ and ≤ were set here for values at or beyond the usual limits of such assays.
The next assay addresses HLA-B*51:01. Described as above. The conditions noted are these: source organism: Salmonella enterica subsp. enterica serovar Paratyphi A str. AKU_12601.
The next assay concerns the target HLA-B*46:01. The assay is described as above. The conditions noted are these: source organism: Salmonella enterica subsp. enterica serovar Paratyphi A str. AKU_12601.
The target of another assay is HLA-A*02:11. Described as above. The conditions noted are these: source organism: Salmonella enterica subsp. enterica serovar Paratyphi A str. AKU_12601.
Assay [6] addresses HLA-A*03:01. The assay is described as above. The conditions noted are these: source organism: Salmonella enterica subsp. enterica serovar Paratyphi A str. AKU_12601.
The target in assay [7] is HLA-A*26:01. Described as above. To be noted: source organism: Salmonella enterica subsp. enterica serovar Paratyphi A str. AKU_12601.
The target in a further assay is HLA-B*57:01. The assay is described as above. The conditions noted are these: source organism: Salmonella enterica subsp. enterica serovar Paratyphi A str. AKU_12601.
Assay [8] concerns the target HLA-A*02:01. The assay is described as above. The conditions noted are these: source organism: Salmonella enterica subsp. enterica serovar Paratyphi A str. AKU_12601.
Another assay addresses HLA-B*18:01. The assay is described as above. To be noted: source organism: Salmonella enterica subsp. enterica serovar Paratyphi A str. AKU_12601.
A further assay concerns the target HLA-A*29:02. The assay is described as above. The conditions noted are these: source organism: Salmonella enterica subsp. enterica serovar Paratyphi A str. AKU_12601.
The target of the next assay is HLA-B*39:01. Described as above. The conditions noted are these: source organism: Salmonella enterica subsp. enterica serovar Paratyphi A str. AKU_12601.
The target of another assay is HLA-A*02:19. The assay is described as above. The conditions noted are these: source organism: Salmonella enterica subsp. enterica serovar Paratyphi A str. AKU_12601.
For a further assay, the target named is HLA-B*15:17. The assay is described as above. To be noted: source organism: Salmonella enterica subsp. enterica serovar Paratyphi A str. AKU_12601.
In the next assay the target is HLA-A*24:03. The description is as above. To be noted: source organism: Salmonella enterica subsp. enterica serovar Paratyphi A str. AKU_12601.
In assay [9] the target is HLA-B*15:01. The assay is described as above. To be noted: source organism: Salmonella enterica subsp. enterica serovar Paratyphi A str. AKU_12601.
Another assay concerns the target HLA-A*02:03. The assay is described as above. To be noted: source organism: Salmonella enterica subsp. enterica serovar Paratyphi A str. AKU_12601.
The next assay deals with HLA-A*02:12. Described as above. The conditions noted are these: source organism: Salmonella enterica subsp. enterica serovar Paratyphi A str. AKU_12601.
The next assay addresses HLA-B*27:03. Described as above. The conditions noted are these: source organism: Salmonella enterica subsp. enterica serovar Paratyphi A str. AKU_12601.
The target of another assay is HLA-C*04:01. Kind of assay: IEDB peptide-MHC binding, purified MHC/direct/fluorescence; filed as Kd, often an IC50 or EC50 that approximates it; ≥ and ≤ were set here for values at or beyond the usual limits of such assays. To be noted: source organism: Homo sapiens.
The target of the next assay is HLA-C*06:02. The assay is described as above.
Assay [10] has as its target HLA-B*27:05. Kind of assay: IEDB peptide-MHC binding, purified MHC/competitive/fluorescence; filed as Kd, often an IC50 or EC50 that approximates it; ≥ and ≤ were set here for values at or beyond the usual limits of such assays. The conditions noted are these: source organism: Encephalitozoon cuniculi GB-M1.
For another assay, the target named is HLA-B*48:01. Described as above. To be noted: source organism: Encephalitozoon cuniculi GB-M1.
The next assay addresses HLA-C*07:02. Description: IEDB peptide-MHC binding, purified MHC/direct/fluorescence; filed as Kd, often an IC50 or EC50 that approximates it; ≥ and ≤ were set here for values at or beyond the usual limits of such assays.
[11] abbreviates: source organism: Encephalitozoon cuniculi GB-M1.
Setting [12] is: source organism: Vibrio vulnificus CMCP6.

As usually defined, the Kd is the equilibrium constant for the complex coming apart. A high value points to weaker binding. In the case of FILSGRFSY, in the assay with HLA-B*15:02 (source organism: Shigella flexneri), the Kd was found to be 0.396 µM. This counts as sub-micromolar.
As for GKFFAQAFL, the Kd in the assay with HLA-B*27:05 [1] was 1.29 µM; with HLA-B*40:01 it was no less than 20 µM; with HLA-A*11:01 it was no less than 20 µM; with HLA-B*08:01, no less than 20 µM; with HLA-A*03:01 [2], no less than 20 µM; with HLA-A*26:01 [3], no less than 20 µM. Moreover, the Kd with HLA-A*69:01, with HLA-B*44:02, with HLA-A*01:01, with HLA-A*02:01 [4], with HLA-B*58:01 and in the assay with HLA-A*31:01 was no less than 20 µM each time. The Kd is no less than 20 µM with HLA-B*07:02, no less than 20 µM with HLA-B*15:01 [5], 0.753 µM with HLA-A*30:01 and no less than 20 µM with HLA-B*73:01 (source organism: Vibrio cholerae).
As to AMDTHLYFE, the Kd is no less than 20 µM in the assay with HLA-B*51:01; no less than 20 µM with HLA-B*46:01; 0.0539 µM in the assay with HLA-A*02:11; no less than 20 µM with HLA-A*03:01 [6]; no less than 20 µM in the assay with HLA-A*26:01 [7]; no less than 20 µM with HLA-B*57:01. For the same sequence, the Kd with HLA-A*02:01 [8], with HLA-B*18:01, with HLA-A*29:02, with HLA-B*39:01, with HLA-A*02:19 and with HLA-B*15:17 was no less than 20 µM throughout. For the same sequence, the Kd was no less than 20 µM in the assay with HLA-A*24:03; no less than 20 µM in the assay with HLA-B*15:01 [9]; no less than 20 µM in the assay with HLA-A*02:03; 0.284 µM in the assay with HLA-A*02:12; no less than 20 µM with HLA-B*27:03.
The sequence QLLDFLLAY returned an equilibrium dissociation constant (Kd) in the assay with HLA-B*15:02 (source organism: Shigella dysenteriae Sd197) of 0.0558 µM.
In the assay with HLA-C*04:01, WYDALCVLL yielded a Kd of 0.035 µM.
The sequence SRDYYRHKV had a Kd in the assay with HLA-B*73:01 (source organism: Clostridium novyi NT) of 3.62 µM.
Take GLYQGIVGF: in the assay with HLA-B*15:02 (source organism: Rickettsia prowazekii str. Madrid E), the Kd is 0.0596 µM.
In the case of YRFNLRRKM, the Kd in the assay with HLA-C*06:02 (setting [11]) was 0.01 µM; with HLA-B*27:05 [10] it was 0.0012 µM; in the assay with HLA-B*48:01 it was no less than 20 µM; in the assay with HLA-B*73:01 (setting [11]), 0.0851 µM.
In the assay with HLA-C*06:02 (source organism: dengue virus type 1), RKKLRPRWL yielded a Kd of no less than 20 µM.
Turning to FMIVNNFPV, the Kd stood at 0.633 µM in the assay with HLA-C*06:02 (setting [12]) and 1.01 µM with HLA-C*07:02 (setting [12]).
In the assay with HLA-B*15:02 (source organism: Clostridium botulinum A str. ATCC 3502), HMLVVIRKY displayed a Kd of 0.194 µM. That is a sub-micromolar value.
In the assay with HLA-B*15:02 (source organism: Yersinia pestis CO92), ILRDGQRWY came in with a Kd of 0.0552 µM.
YYNAFHWAI had a Kd with HLA-C*07:02 (source organism: Homo sapiens) of 0.715 µM.
On to SDFFDRLQV, for which, in the assay with HLA-B*73:01 (source organism: Cryptosporidium parvum Iowa II), the Kd was no less than 20 µM.
In the case of YFYYNAFHW, the Kd is no less than 20 µM in the assay with HLA-C*04:01 and 2.06 µM with HLA-C*07:02 (source organism: Homo sapiens).
